{"source": "patent US20060052582A1", "about": "“Identification of inhibitors of mitosis” (priority 2002, published 2006)", "molecules": {"B1": {"name": "FLAG Nercc1 (347-979): FLAG-tagged polypeptide consisting of Nercc1 amino acids 347-979 of SEQ ID NO:2 (protein, listed as Homo sapiens)", "chain": "SEVYIWGGGKSTPQKLDVIKSGCSARQVCAGNTHFAVVTVEKELYTWVNMQGGTKLHGQLGHGDKASYRQPKHVEKLQGKAIHQVSCGDDFTVCVTDEGQLYAFGSDYYGCMGVDKVAGPEVLEPMQLNFFLSNPVEQVSCGDNHVVVLTRNKEVYSWGCGEYGRLGLDSEEDYYTPQKVDVPKALIIVAVQCGCDGTFLLTQSGKVLACGLNEFNKLGLNQCMSGIINHEAYHEVPYTTSFTLAKQLSFYKIRTIAPGKTHTAAIDERGRLLTFGCNKCGQLGVGNYKKRLGINLLGGPLGGKQVIRVSCGDEFTIAATDDNHIFAWGNGGNGRLAMTPTERPHGSDICTSWPRPIFGSLHHVPDLSCRGWHTILIVEKVLNSKTIRSNSSGLSIGTVFQSSSPGGGGGGGGGEEEDSQQESETPDPSGGFRGTMEADRGMEGLISPTEAMGNSNGASSSCPGWLRKELENAEFIPMPDSPSPLSAAFSESEKDTLPYEELQGLKVASEAPLEHKPQVEASSPRLNPAVTCAGKGTPLTPPACACSSLQVEVERLQGLVLKCLAEQQKLQQENLQIFTQLQKLNKKLEGGQQVGMHSKGTQTAKEEMEMDPKPDLDSDSGCLLGTDSCRPSL", "modifications": "FLAG tag"}}, "system": "Nek6", "sequence (Q9HC98 whole entry, the tested form may be a part)": "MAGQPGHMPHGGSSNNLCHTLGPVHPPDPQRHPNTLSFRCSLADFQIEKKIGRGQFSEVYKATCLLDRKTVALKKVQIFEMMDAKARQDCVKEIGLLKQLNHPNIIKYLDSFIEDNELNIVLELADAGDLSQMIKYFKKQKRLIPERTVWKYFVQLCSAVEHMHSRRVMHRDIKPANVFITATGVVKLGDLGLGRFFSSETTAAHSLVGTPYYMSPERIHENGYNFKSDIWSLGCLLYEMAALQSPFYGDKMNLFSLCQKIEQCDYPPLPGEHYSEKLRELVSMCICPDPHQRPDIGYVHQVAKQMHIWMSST", "assay": "Activity and phosphorylation of GST Nek6 coexpressed with Nercc1 noncatalytic fragment in HEK293 cells", "format": "cell-based, human", "procedure": "GST Nek6 was coexpressed with increasing quantities of FLAG Nercc1 (347-979). The kinase activity of GST Nek6 was measured using MBP as substrate.\nGST Nek6 was cotransfected in HEK293 cells with increasing amounts of FLAG Nercc1 (347-979), and immunoblots of the extracts were carried out using the indicated antibodies."}
{"molecule": "B1", "values": [{"measurement": "effect on Nek6 activation loop phosphorylation", "setting": "cotransfected in HEK293 cells", "result": "suppresses"}, {"measurement": "effect on kinase activity of coexpressed GST Nek6", "setting": "overexpression in vivo, MBP as substrate", "result": "inhibited"}]}
